US20220017611A1 (INSERM INSTITUTE NATIONAL DE LA SANT ET DE LA RECHERCHE M …, published 2022)
Where a chain is given by its changes, count along the chain named. In names and notes the source's numbering stands. Read-outs that look alike come from different tables or passages of the source.

How the values were obtained:
[1] = biological target: T1, recombinant full-length Tau protein, longest isoform (Tau 2N4R) (human, UniProt P10636-8 1-441, biotinylated with NHS-biotin for SPR; 15N-labelled for NMR); test: SPR (Biacore T200), single-cycle kinetics, biotinylated Tau on streptavidin chip, VHH injected 0.125-2 µM
T1 construct: range 1-441; Expressed in E. coli from pET15b-Tau; also called biotinylated-Tau; 15N-Tau
Description: (§1) Affinity measurements were performed on a BIAcore T200 optical biosensor instrument (GE Healthcare). Recombinant Tau proteins were biotinylated with 5 molar excess of NHS-biotin conjugates (Thermofisher) during 4 hours at 4° C. Capture of biotinylated Tau was performed on a streptavidin SA sensorchip in HBS-EP+ buffer (GE Healthcare). One flow cell was used as a reference to evaluate nonspecific binding and provide background correction. Biotinylated-Tau was injected at a flow-rate of 30 μL/min, until the total amount of captured Tau reached 500 resonance units (RUs). VHHs were injected sequentially with increasing concentrations ranging between 0.125 and 2 μM in a single cycle, with regeneration (3 successive washes of 1M NaCl) between each VHH. On the other hand, VHH Z70 was immobilized on a CMS chip in HBS-EP+ buffer (GE Healthcare) and increasing concentrations, ranging between 0.125 and 2 μM of the SUMO-Tau peptide, were successively injected. Single-Cycle Kinetics (SCK) analysis⁵² was performed to determine association kon and dissociation Koff rate constants by curve fitting of the sensorgrams using the 1:1 Langmuir model of interaction of the BIAevaluation sotware 2.0 (GE Healthcare). Dissociation equilibrium constants (KD) was calculated as kon/Koff.

[2] = biological target: T1, recombinant full-length Tau protein, …; test: cell-based or functional assay
[3] = biological target: T1, recombinant full-length Tau protein, …; test: SPR (Biacore T200), single-cycle kinetics, biotinylated Tau on streptavidin chip, VHH injected 0.125-2 µM; remark: listed apart in the source
Description: as §1, with “VHH.” for “VHH. On the other hand, VHH Z70 was immobilized on a CMS chip in HBS-EP+ buffer (GE Healthcare) and increasing concentrations, ranging between 0.125 and 2 μM of the SUMO-Tau peptide, were successively injected.”, “(Kd)” for “(KD)”

[4] = biological target: T2, His-SUMO-Tau peptide Tau[273-318] (human, UniProt O02828 235-280 (Capra hircus entry), not fully specified); test: SPR, single-cycle kinetics, VHH Z70 immobilized on the chip, SUMO-Tau[273-318] injected 0.125-2 µM
T2 construct: SUMO domain fused at its C-terminus to the Tau peptide [273-318]; also called fused peptide; not shown: The N-terminal HisTag, the SUMO3 domain and any linker from vector pETNKI-HisSUMO3-LIC
T2 peptide: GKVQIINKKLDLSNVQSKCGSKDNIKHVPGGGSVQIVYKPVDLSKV
Description: as §1, with “[…]. […]” for “kon/Koff.”

[5] = biological target: T1, recombinant full-length Tau protein, …; test: SPR, biotinylated Tau on streptavidin chip (the best mutant is Mut1 by Table 4)
Description: as §1, with “VHH.” for “VHH. On the other hand, VHH Z70 was immobilized on a CMS chip in HBS-EP+ buffer (GE Healthcare) and increasing concentrations, ranging between 0.125 and 2 μM of the SUMO-Tau peptide, were successively injected.”, “(Kd)” for “(KD)”
A mutant library of VHH Z70 has been screened for mutants displaying a stronger affinity in yeast two-hybrid system as described above. 8 mutants were selected and their affinity have been further characterized using SPR experiments.

T1 sequence (P10636 other isoform, or with tags, fused parts or gaps limits assumed): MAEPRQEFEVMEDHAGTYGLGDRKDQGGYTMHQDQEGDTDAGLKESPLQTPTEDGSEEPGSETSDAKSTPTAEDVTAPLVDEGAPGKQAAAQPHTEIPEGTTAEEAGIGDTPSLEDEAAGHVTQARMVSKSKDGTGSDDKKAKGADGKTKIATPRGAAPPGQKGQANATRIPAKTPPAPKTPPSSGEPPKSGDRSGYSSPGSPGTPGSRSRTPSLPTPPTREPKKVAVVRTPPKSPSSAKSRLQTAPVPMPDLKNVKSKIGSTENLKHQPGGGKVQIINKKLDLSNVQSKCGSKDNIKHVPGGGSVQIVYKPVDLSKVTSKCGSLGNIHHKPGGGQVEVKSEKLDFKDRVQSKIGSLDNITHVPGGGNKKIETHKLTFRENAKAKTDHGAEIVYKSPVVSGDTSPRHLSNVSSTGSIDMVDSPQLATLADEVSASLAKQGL

B1: VHH E4-1 (VHH)
VHH: EVQLQASGGGFVQPGGSLRLSCAASGATSTFDGMGWFRQAPGKEREFVSAISYEQGSYTYYADSVKGRFTISRDNSKNTVYLQMNSLRAEDTATYYCAPAYEGDLYAFDSYWGQGTQVTVSS
notes: Selected from the synthetic Nali-H1 phage library; also called lead VHH E4-1
With B1 the Kd [1] was 345 nM, the koff [1] was 0.0017 s⁻¹ and the kon [1] was 4980 M⁻¹ s⁻¹. The “Thioflavin T fluorescence signal (% of positive control), 1:1 Tau:VHH E4-1 molar ratio” value [2] was 58.3%, the “maximal Thioflavin T fluorescence signal (% of positive control), molar ratio 1:0.25 Tau:VHH E4-1” value [2] was 86.9% and the “time to gain 50% of maximal Thioflavin T signal, 1:1 Tau:VHH E4-1 molar ratio” value [2] was over 12.8 h. The “time to gain 50% of maximal Thioflavin T signal, molar ratio 1:0.25 Tau:VHH E4-1 (2.5 h for the positive control)” value [2] was about 3.8 h.

B2: VHH Z70 (VHH)
VHH: B1 VHH with G10V, P14S, T79M, W112G
notes: E4-1 with G12V, P16S, T81M and W114G; It may be the form actually produced from pHEN2; also called single domain antibody Z70; optimized VHH Z70
B2 was tested, and the Kd [1] was 147 nM, the koff [1] was 0.0026 s⁻¹ and the kon [1] was 18100 M⁻¹ s⁻¹. The Kd [3] was 147 nM, the koff [3] was 0.00267 s⁻¹ and the kon [3] was 18100 M⁻¹ s⁻¹. For the same binder, the Kd [4] was 85 nM and the “maximal Thioflavin T fluorescence signal (% of positive control), 1:1 Tau:VHH Z70 molar ratio” value [2] was 4.1%.

B3: VHH Mut9 (VHH)
VHH: B1 VHH with G10V, P14S, T79M, P99S, W112G, G113E
notes: Variant of Z70; also called VH Mut9
B3 showed a Kd [3] of 51 nM, a koff [3] of 0.00205 s⁻¹ and a kon [3] of 40100 M⁻¹ s⁻¹.

B4: VHH Mut14 (VHH)
VHH: B1 VHH with G10V, P14S, T30I, E54G, T79M, W112G, G113E
notes: Variant of Z70; also called VH Mut14
With B4 the Kd [3] was 74.2 nM, the koff [3] was 0.0014 s⁻¹ and the kon [3] was 18800 M⁻¹ s⁻¹.

B5: VHH Mut20 (VHH)
VHH: B1 VHH with G10V, P14S, R45K, T79M, W112G, G113E
notes: Variant of Z70; also called VH Mut20
In the case of B5, the Kd [3] is reported as 41.8 nM, the koff [3] is reported as 0.00089 s⁻¹ and the kon [3] is reported as 21200 M⁻¹ s⁻¹.

B6: VHH Mut3 (VHH)
VHH: B1 VHH with G10V, P14S, R45K, T79M, W112G
notes: Variant of Z70; also called VH Mut3
B6 was tested, and the Kd [3] was 80.5 nM, the koff [3] was 0.0021 s⁻¹ and the kon [3] was 26000 M⁻¹ s⁻¹.

B7: VHH Mut1 (VHH)
VHH: B1 VHH with G10V, P14S, T79M, W112G, G113E
notes: Variant of Z70; also called VH Mut1
B7 was tested, and the “fold improvement of KD against VHH Z70” value [5] was over 6 fold, the Kd [3] was 22.6 nM and the koff [3] was 0.00242 s⁻¹. The kon [3] was 107000 M⁻¹ s⁻¹.

B8: VHH Mut15 (VHH)
VHH: B1 VHH with G10V, P14S, T79M, R88G, P99S, W112E
notes: Variant of Z70; also called VH Mut15
Work on B8 yielded a Kd [3] of 95.6 nM, a koff [3] of 0.00203 s⁻¹ and a kon [3] of 21300 M⁻¹ s⁻¹.

B9: VHH Mut5 (VHH)
VHH: B1 VHH with G10V, P14S, T79M, T94S, W112G
notes: Variant of Z70; also called VH Mut5
In the case of B9, the Kd [3] is reported as 80.8 nM, the koff [3] is reported as 0.000883 s⁻¹ and the kon [3] is reported as 10900 M⁻¹ s⁻¹.

B10: VHH Mut12 (VHH)
VHH: AEVQLQASGGVFVQSGGSLRLCCAASGATSTFDGMGWFRQAPGKEREFVSAISYEQGSYTYYADSVKGRFTISRDNSKNMVYLQMNSLRAEDTATYYCAPAYEGDLYAFDSYGEQGTQVTVSS
notes: Variant of Z70; also called VH Mut12
B10 gave a Kd [3] of 61.1 nM, a koff [3] of 0.00207 s⁻¹ and a kon [3] of 33900 M⁻¹ s⁻¹.
